In one assay the target is T1, HLA-A*02:01 (human).
T1 construct: MHC monomers captured on streptavidin plates; the UV-sensitive peptide is cleaved and exchanged with the test peptide; also called peptide-receptive MHC molecules; MHC class I
The assay can be described thus: UV ligand-exchange ELISA (anti-b2m); +++ = exchange yield >=50. The method in brief:
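Binding capacity assessed as exchange yield: only peptides that stabilize peptide-receptive HLA-A*02:01 prevent complex dissociation after UV cleavage of the conditional ligand. Intact complexes were detected via β2m by ELISA.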
Background: ELISA stands for enzyme-linked immunosorbent assay.
Molecule FVQEKIPEL gave a peptide exchange yield of 50 to 75%.

For SLLEVNEASSV, the peptide exchange yield is 50 to 75%.

The molecule LLDPKTIFL (also called HAVCR1-001) returned a peptide exchange yield of 50 to 75%.

KLIDEDEPLFL: the peptide exchange yield fell in the range of 50 to 75%.

For YLDEVAFML, the peptide exchange yield is 50 to 75%.

Regarding GLYPVTLVGV, the peptide exchange yield is 50 to 75%.

In turn, ILGSFELQL returned a peptide exchange yield of 50 to 75%.

In the case of TLFGIQLTEA, the peptide exchange yield lay in the range of 50 to 75%.

On to KLFEKSTGL, for which the peptide exchange yield lay in the range of 50 to 75%.

In the case of ALQSFEFRV, the peptide exchange yield lay in the range of 50 to 75%.

Molecule FIANLPPELKA had a peptide exchange yield of 50 to 75%.

The next assay has as its target T1, HLA-A*02:01. The assay can be described thus: UV ligand-exchange ELISA (anti-b2m); ++ = exchange yield >=20%. The source says:
Candidate peptides for T cell based therapies according to the present invention were further tested for their MHC binding capacity (affinity). The individual peptide-MHC complexes were produced by UV-ligand exchange, where a UV-sensitive peptide is cleaved upon UV-irradiation, and exchanged with the peptide of interest as analyzed. Only peptide candidates that can effectively bind and stabilize the peptide-receptive MHC molecules prevent dissociation of the MHC complexes. To determine the yield of the exchange reaction, an ELISA was performed based on the detection of the light chain (β2m) of stabilized MHC complexes. The assay was performed as generally described in Rodenko et al. (Rodenko et al., 2006).
96 well MAXISorp plates (NUNC) were coated over night with 2 ug/ml streptavidin in PBS at room temperature, washed 4× and blocked for 1 h at 37° C. in 2% BSA containing blocking buffer. Refolded HLA-A*02:01/MLA-001 monomers served as standards, covering the range of 15-500 ng/ml. Peptide-MHC monomers of the UV-exchange reaction were diluted 100 fold in blocking buffer. Samples were incubated for 1 h at 37° C., washed four times, incubated with 2 ug/ml HRP conjugated anti-β2m for 1 h at 37° C., washed again and detected with TMB solution that is stopped with […]. Absorption was measured at 450 nm. Candidate peptides that show a high exchange yield (preferably higher than 50%, most preferred higher than 75%) are generally preferred for a generation and production of antibodies or fragments thereof, and/or T cell receptors or fragments thereof, as they show sufficient avidity to the MHC molecules and prevent dissociation of the MHC complexes.
ALDSTIAHL came in with a peptide exchange yield of 20 to 50%.

As for LLTGVFAQL, the peptide exchange yield lay within 20 to 50%.

The molecule TLDSYLKAV (also called CYP4Z-001) displayed a peptide exchange yield of 20 to 50%.

As for FLFVDPELV, the peptide exchange yield was in the range of 20 to 50%.

Regarding NMADGQLHQV, the peptide exchange yield fell in the range of 20 to 50%.

The molecule ALVEKGEFAL had a peptide exchange yield of 20 to 50%.

Molecule NIDINNNEL came in with a peptide exchange yield of 20 to 50%.

For the molecule SLIEESEEL, the peptide exchange yield lay within 20 to 50%.

In the case of VLGEEQEGV, the peptide exchange yield lay within 20 to 50%.

Molecule FLDGRPLTL returned a peptide exchange yield of 20 to 50%.

For the molecule VQSGLRILL, the peptide exchange yield fell in the range of 20 to 50%.

The molecule MTLSEIHAV displayed a peptide exchange yield of 20 to 50%.

Molecule GIINKLVTV yielded a peptide exchange yield of 20 to 50%.

With DISKRIQSL, the peptide exchange yield was in the range of 20 to 50%.

FIAAVVEKV registered a peptide exchange yield of 20 to 50%.

For the molecule FLFLKEVKV, the peptide exchange yield lay in the range of 20 to 50%.

LLLLDVPTA gave a peptide exchange yield of 20 to 50%.

Molecule VVAAHLAGA yielded a peptide exchange yield of 20 to 50%.

In the case of ALSTVTPRI, the peptide exchange yield lay in the range of 20 to 50%.

Turning to LLDAAHASI, the peptide exchange yield lay within 20 to 50%.

ALLLRLFTI: the peptide exchange yield lay in the range of 20 to 50%.

In turn, TLLEGISRA (also called CABY-001) showed a peptide exchange yield of 20 to 50%.

The molecule SLYKSFLQL gave a peptide exchange yield of 20 to 50%.

Take GVVPTIQKV (also called GWPTIQKV): the peptide exchange yield fell in the range of 20 to 50%.

Molecule TLLPSSGLVTL displayed a peptide exchange yield of 20 to 50%.

As for KLIYKDLVSV, the peptide exchange yield lay within 20 to 50%.

In turn, SILTNISEV gave a peptide exchange yield of 20 to 50%.

LLFPSDVQTL returned a peptide exchange yield of 20 to 50%.

KVFELDLVTL showed a peptide exchange yield of 20 to 50%.

The molecule ALYVQAPTV yielded a peptide exchange yield of 20 to 50%.

With ILQDGQFLV (also called DCAF4L2-001), the peptide exchange yield lay in the range of 20 to 50%.

Turning to ALYSGDLHAA, the peptide exchange yield fell in the range of 20 to 50%.

In turn, GLEERLYTA registered a peptide exchange yield of 20 to 50%.

The molecule SILKEDPFL returned a peptide exchange yield of 20 to 50%.

Consider ALLSSVAEA, for which the peptide exchange yield was 20 to 50%.

QIADIVTSV: the peptide exchange yield was in the range of 20 to 50%.

In the case of SVADLAHVL, the peptide exchange yield lay in the range of 20 to 50%.

Regarding KMASKVTQV, the peptide exchange yield was 20 to 50%.

In turn, KLLEEVQLL registered a peptide exchange yield of 20 to 50%.

As to QIQGQVSEV, the peptide exchange yield fell in the range of 20 to 50%.

The molecule TLYQGLPAEV yielded a peptide exchange yield of 20 to 50%.

AIIKEIQTV had a peptide exchange yield of 20 to 50%.

For the molecule IMLNSVEEI, the peptide exchange yield lay within 20 to 50%.

In the case of KTASINQNV, the peptide exchange yield was in the range of 20 to 50%.

In the case of HLNNDRNPL, the peptide exchange yield is 20 to 50%.

Molecule ILTNKVVSV had a peptide exchange yield of 20 to 50%.

In turn, ILHGEVNKV gave a peptide exchange yield of 20 to 50%.
